Data from patent US7588931B2, “High arachidonic acid producing strains of Yarrowia lipolytica” (E. I. du Pont de Nemours and Company, priority 2004, dated 2009).

B1: Homo sapiens Δ5 desaturase: GenBank NP_037534; codon-optimized gene SEQ ID NO:13 (protein, listed as Homo sapiens)
chain: MAPDPVAAETAAQGPTPRYFTWDEVAQRSGCEERWLVIDRKVYNISEFTRRHPGGSRVISHYAGQDATDPFVAFHINKGLVKKYMNSLLIGELSPEQPSFEPTKNKELTDEFRELRATVERMGLMKANHVFFLLYLLHILLLDGAAWLTLWVFGTSFLPFLLCAVLLSAVQAQAGWLQHDFGHLSVFSTSKWNHLLHHFVIGHLKGAPASWWNHMHFQHHAKPNCFRKDPDINMHPFFFALGKILSVELGKQKKKYMPYNHQHKYFFLIGPPALLPLYFQWYIFYFVIQRKKWVDLAWMITFYVRFFLTYVPLLGLKAFLGLFFIVRFLESNWFVWVTQMNHIPMHIDHDRNMDWVSTQLQATCNVHKSAFNDWFSGHLNFQIEHHLFPTMPRHNYHKVAPLVQSLCAKHGIEYQSKPLLSAFADIIHSLKESGQLWLDAYLHQ
modifications: misc_feature: synthetic delta-5 desaturase (codon-optimized)
B2: Rattus norvegicus C16/18 elongase: GenBank AB071986; codon-optimized gene SEQ ID NO:52 (protein, listed as Rattus norvegicus)
chain: MDMSVLTLQEYEFEKQFNENEAIQWMQENWKKSFLFSALYAAFIFGGRHLMNKRAKFELRKPLVLWSLTLAVFSIFGALRTGAYMLYILMTKGLKQSVCDQSFYNGPVSKFWAYAFVLSKAPELGDTIFIILRKQKLIFLHWYHHITVLLYSWYSYKDMVAGGGWFMTMNYGVHAVMYSYYALRAAGFRVSRKFAMFITLSQITQMLMGCVINYLVFNWMQHDNDQCYSHFQNIFWSSLMYLSYLLLFCHFFFEAYIGKVKKATKAE
modifications: misc_feature: synthetic C16/18 elongase (codon-optimized)
B3: FBAINm: modified version of the FBAIN promoter, SEQ ID NO:163 (nucleic acid, listed as Yarrowia lipolytica)
DNA: AAATTGCCCCGGAGAAGACGGCCAGGCCGCCTAGATGACAAATTCAACAACTCACAGCTGACTTTCTGCCATTGCCACTAGGGGGGGGCCTTTTTATATGGCCAAGCCAAGCTCTCCACGTCGGTTGGGCTGCACCCAACAATAAATGGGTAGGGTTGCACCAACAAAGGGATGGGATGGGGGGTAGAAGATACGAGGATAACGGGGCTCAATGGCACAAATAAGAACGAATACTGCCATTAAGACTCGTGATCCAGCGACTGACACCATTGCATCATCTAAGGGCCTCAAAACTACCTCGGAACTGCTGCGCTGATCTGGACACCACAGAGGTTCCGAGCACTTTAGGTTGCACCAAATGTCCCACCAGGTGCAGGCAGAAAACGCTGGAACAGCGTGTACAGTTTGTCTTAACAAAAAGTGAGGGCGCTGAGGTCGAGCAGGGTGGTGTGACTTGTTATAGCCTTTAGAGCTGCGAAAGCGCGTATGGATTTGGCTCATCAGGCCAGATTGAGGGTCTGTGGACACATGTCATGTTAGTGTACTTCAATCGCCCCCTGGATATAGCCCCGACAATAGGCCGTGGCCTCATTTTTTTGCCTTCCGCACATTTCCATTGCTCGGTACCCACACCTTGCTTCTCCTGCACTTGCCAACCTTAATACTGGTTTACATTGACCAACATCTTACAAGCGGGGGGCTTGTCTAGGGTATATATAAACAGTGGCTCTCCCAATCGGTTGCCAGTCTCTTTTTTCCTTTCTTTCCCCACAGATTCGAAATCTAAACTACACATCACAGAATTCCGAGCCGTGAGTATCCACGACAAGATCAGTGTCGAGACGACGCGTTTTGTGTAATGACACAATCCGAAAGTCGCTAGCAACACACACTCTCTACACAAACTAACCCAGCTCTGGTACC
modifications: misc_feature: Promoter FBAINm
B4: EXP1: Y. lipolytica export protein promoter, SEQ ID NO:364 (nucleic acid, listed as Yarrowia lipolytica)
DNA: GGAGTTTGGCGCCCGTTTTTTCGAGCCCCACACGTTTCGGTGAGTATGAGCGGCGGCAGATTCGAGCGTTTCCGGTTTCCGCGGCTGGACGAGAGCCCATGATGGGGGCTCCCACCACCAGCAATCAGGGCCCTGATTACACACCCACCTGTAATGTCATGCTGTTCATCGTGGTTAATGCTGCTGTGTGCTGTGTGTGTGTGTTGTTTGGCGCTCATTGTTGCGTTATGCAGCGTACACCACAATATTGGAAGCTTATTAGCCTTTCTATTTTTTCGTTTGCAAGGCTTAACAACATTGCTGTGGAGAGGGATGGGGATATGGAGGCCGCTGGAGGGAGTCGGAGAGGCGTTTTGGAGCGGCTTGGCCTGGCGCCCAGCTCGCGAAACGCACCTAGGACCCTTTGGCACGCCGAAATGTGCCACTTTTCAGTCTAGTAACGCCTTACCTACGTCATTCCATGCATGCATGTTTGCGCCTTTTTTCCCTTGCCCTTGATCGCCACACAGTACAGTGCACTGTACAGTGGAGGTTTTGGGGGGGTCTTAGATGGGAGCTAAAAGCGGCCTAGCGGTACACTAGTGGGATTGTATGGAGTGGCATGGAGCCTAGGTGGAGCCTGACAGGACGCACGACCGGCTAGCCCGTGACAGACGATGGGTGGCTCCTGTTGTCCACCGCGTACAAATGTTTGGGCCAAAGTCTTGTCAGCCTTGCTTGCGAACCTAATTCCCAATTTTGTCACTTCGCACCCCCATTGATCGAGCCCTAACCCCTGCCCATCAGGCAATCCAATTAAGCTCGCATTGTCTGCCTTGTTTAGTTTGGCTCCTGCCCGTTTCGGCGTCCACTTGCACAAACACAAACAAGCATTATATATAAGGCTCGTCTCTCCCTCCCAACCACACTCACTTTTTTGCCCGTCTTCCCTTGCTAACACAAAAGTCAAGAACACAAACAACCACCCCAACCCCCTTACACACAAGACATATCTACAGCA
modifications: misc_feature: Promoter EXP1

Experiments:
[1] = test system: Yarrowia lipolytica; test: Percent substrate conversion of desaturases and elongases expressed in Yarrowia lipolytica; assay type: cell-based; details: percent substrate conversion, codon-optimized gene expressed in Y. lipolytica
Protocol: The terms “conversion efficiency” and “percent substrate conversion” refer to the efficiency by which a particular enzyme (e.g., a desaturase or elongase) can convert substrate to product. The conversion efficiency is measured according to the following formula: ([product]/[substrate+product])*100, where ‘product’ includes the immediate product and all products in the pathway derived from it.
With respect to Δ12 desaturase, Applicants have made the surprising discovery that the Fusarium moniliforme Δ12 desaturase (encoded by SEQ ID NO:27) functions with greater efficiency than the native Yarrowia lipolytica Δ12 desaturase in producing 18:2 in Y. lipolytica (see WO 2005/047485). Specifically, expression of the F. moniliforme Δ12 desaturase under the control of the TEF promoter in Y. lipolytica was determined to produce higher levels of 18:2 (68% product accumulation of LA) than were previously attainable by expression of a chimeric gene encoding the Y. lipolytica Δ12 desaturase under the control of the TEF promoter (59% product accumulation of LA). This corresponds to a difference in percent substrate conversion (calculated as ([18:2+18:3]/[18:1+18:2+18:3])*100) of 85% versus 74%, respectively.
In the present invention, several desaturase and elongase genes from Table 5 were codon-optimized for expression in Yarrowia lipolytica, based on the host preferences described above. This was possible by first determining the Y. lipolytica codon usage profile (see WO 04/101757) and identifying those codons that were preferred. Then, for further optimization of gene expression in Y. lipolytica, the consensus sequence around the ‘ATG’ initiation codon was determined (i.e., ‘MAMMATGNHS’ (SEQ ID NO:356), wherein the nucleic acid degeneracy code used is as follows: M=A/C; S═C/G; H=A/C/T; and N=A/C/G/T). Table 7, below, compares the activity of native and codon-optimized genes when expressed in Y. lipolytica and provides details about each codon-optimized gene. % Sub. Conv. is the abbeviation for “percent substrate conversion” and Codon-Opt. is an abbreviation for “codon-optimized”.
Construct pDMW237 (FIG. 8C), an auto-replication plasmid comprising a chimeric FBAIN::1 g D9e::Pex20 gene, was transformed into Y. lipolytica Y2031 strain (Example 4) as described in the General Methods. Three transformants of Y2031 with pDMW237 were grown individually in MM media for two days and the cells were collected by centrifugation, lipids were extracted, and fatty acid methyl esters were prepared by trans-esterification, and subsequently analyzed with a Hewlett-Packard 6890 GC.
Construct pDMW297 was then used for transformation of strain Y2031 (Example 5) according to the General Methods. The transformant cells were plated onto MM selection media plates and maintained at 30° C. for 2 to 3 days. A total of 8 transformants grown on the MM plates were picked and re-streaked onto fresh MM plates. Once grown, these strains were individually inoculated into liquid MM at 30° C. and shaken at 250 rpm/min for 2 days. The cells were collected by centrifugation, lipids were extracted, and fatty acid methyl esters were prepared by trans-esterification, and subsequently analyzed with a Hewlett-Packard 6890 GC.

[2] = test system: β-glucuronidase (GUS) reporter; test: Relative promoter activity rank from comparative GUS reporter studies (histochemical, fluorometric and/or Real Time PCR); assay type: cell-based, Yarrowia lipolytica; details: relative to other promoters
Protocol: The activity of GPM is about the same as TEF, while the activity of GPD, FBA, FBAIN, FBAINm, GPDIN, GPAT, YAT1 and EXP1 are all greater than TEF (activity is quantified in a relative manner in the column titled “Activity Rank”, wherein a ‘1’ corresponds to the promoter with lowest activity, while a ‘7’ corresponds to the promoter with highest activity). […] GUS activity in each expressed construct was measured by histochemical and/or fluorometric assays (Jefferson, R. A. Plant Mol. Biol. Reporter 5:387-405 (1987)) and/or by use of Real Time PCR.

Row | Molecule | Codon-Opt. Gene % Sub. Conv. [1] [%] | Activity “Rank” [2]
1 | B1 | 30 | 
2 | B2 | 43 | 
3 | B3 |  | 5
4 | B4 |  | 6
